Test [1] addresses gp130 (on C2C12 myoblasts) (UniProt Q00560). Put plainly: cell-based or functional assay.
The target in test [2] is T1, gp130 (on C2C12 myoblasts) (UniProt Q00560 23-917, limits assumed).
T1 sequence (looked up): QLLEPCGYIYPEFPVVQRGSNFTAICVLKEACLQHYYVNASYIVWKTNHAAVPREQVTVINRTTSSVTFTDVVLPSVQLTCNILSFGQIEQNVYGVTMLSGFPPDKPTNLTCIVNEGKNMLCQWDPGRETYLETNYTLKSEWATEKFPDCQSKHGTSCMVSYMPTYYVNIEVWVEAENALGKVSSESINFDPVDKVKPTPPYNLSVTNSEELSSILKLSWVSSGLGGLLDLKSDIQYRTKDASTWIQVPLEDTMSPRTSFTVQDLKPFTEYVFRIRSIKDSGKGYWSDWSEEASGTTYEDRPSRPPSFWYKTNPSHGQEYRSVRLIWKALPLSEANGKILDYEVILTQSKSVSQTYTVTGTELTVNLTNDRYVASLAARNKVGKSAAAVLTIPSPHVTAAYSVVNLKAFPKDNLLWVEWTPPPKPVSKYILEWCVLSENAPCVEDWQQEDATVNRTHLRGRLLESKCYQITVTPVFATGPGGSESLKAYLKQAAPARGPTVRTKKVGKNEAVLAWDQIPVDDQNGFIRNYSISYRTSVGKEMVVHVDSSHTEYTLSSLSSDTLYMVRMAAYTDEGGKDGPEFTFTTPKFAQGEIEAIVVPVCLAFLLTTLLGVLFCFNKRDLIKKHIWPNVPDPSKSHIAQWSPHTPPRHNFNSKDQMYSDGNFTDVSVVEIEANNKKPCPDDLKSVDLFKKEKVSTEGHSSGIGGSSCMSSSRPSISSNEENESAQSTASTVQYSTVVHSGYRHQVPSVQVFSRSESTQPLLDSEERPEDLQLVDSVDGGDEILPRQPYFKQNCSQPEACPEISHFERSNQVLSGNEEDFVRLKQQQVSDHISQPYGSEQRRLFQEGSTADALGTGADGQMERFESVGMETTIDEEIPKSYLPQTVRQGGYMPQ
The experiment in a line: cell-based or functional assay.

Substitutions are numbered along the chain they refer to.

B1: FTV381, human CT-1 variant retaining cysteine 105 with cysteine 178 replaced (ligand)
chain: MSRREGSLEDPQTDSSVSLLPHLEAKIRQTHSLAHLLTKYAEQLLQEYVQLQGDPFGLPSFSPPRLPVAGLSAPAPSHAGLPVHERLRLDAAALAALPPLLDAVCRRQAELNPRAPRLLRRLEDAARQARALGAAVEALLAALGAANRGPRAEPPAATASAASATGVFPAKVLGLRVSGLYREWLSRTEGDLGQLLPGGSA
Turning to B1, in test [1], the EC50, Stat3 phosphorylation in C2C12 cells (western blot densitometry) fell in the range of 2 to 5 ng/mL and the mean EC50, Stat3 phosphorylation in C2C12 cells was found to be 2.5 ng/mL.

B2: FTV380, human CT-1 variant with cysteine 105 mutated to serine (ligand)
chain: B1 chain with C105S, S178C
With B2, the EC50, Stat3 phosphorylation in C2C12 cells (western blot densitometry) in test [1] is 0.35 ng/mL.

B3: FTV384, human CT-1 variant with both natural cysteines replaced with serines and an additional cysteine at its carboxyl terminus (ligand)
chain: MSRREGSLEDPQTDSSVSLLPHLEAKIRQTHSLAHLLTKYAEQLLQEYVQLQGDPFGLPSFSPPRLPVAGLSAPAPSHAGLPVHERLRLDAAALAALPPLLDAVSRRQAELNPRAPRLLRRLEDAARQARALGAAVEALLAALGAANRGPRAEPPAATASAASATGVFPAKVLGLRVSGLYREWLSRTEGDLGQLLPGGSAC
On to B3, for which, in test [1], the EC50, Stat3 phosphorylation in C2C12 cells (western blot densitometry) worked out at 4 ng/mL and the mean EC50, Stat3 phosphorylation in C2C12 cells amounted to 5 ng/mL.

B4: wild type human cardiotrophin-1 (CT-1) polypeptide, FTV370 (ligand)
chain: SRREGSLEDPQTDSSVSLLPHLEAKIRQTHSLAHLLTKYAEQLLQEYVQLQGDPFGLPSFSPPRLPVAGLSAPAPSHAGLPVHERLRLDAAALAALPPLLDAVCRRQAELNPRAPRLLRRLEDAARQARALGAAVEALLAALGAANRGPRAEPPAATASAASATGVFPAKVLGLRVCGLYREWLSRTEGDLGQLLPGGSA
Take B4: in test [2], the “EC50, Stat3 phosphorylation in C2C12 cells (western blot densitometry)” value was around 1 ng/mL.

These data come from patent US20140171625A1 (FATE THERAPEUTICS, published 2014).
